Test results published in paper PMC3510022 (Molecular Biology of the Cell, 2012).

B2: His6-Nyv1 cytoplasmic domain (domain or fragment)
chain: MKRFNVSYVEVIKNGETISSCFQPFQKNENYGTITSANEQITPVIFHNLIMDMVLPKVVPIKGNKVTKMSMNLIDGFDCFYSTDDHDPKTVYVCFTLVDMPKILPIRILSGLQEYESNATNELLSSHVGQILDSFHEELVEYRNQTLNSSGNGQSSNGNGQNTISDIGDATEDQIKDVIQIMNDNIDKFLERQERVSLLVDKTSQLNSSSNKFRRKAVNIKEIMWWQKVKN
B4: His7-MBP-Vti1 cytoplasmic domain (domain or fragment)
chain: SSLLISYESDFKTTLEQAKASLAEAPSQPLSQRNTTLKHVEQQQDELFDLLDQMDVEVNNSIGDASERATYKAKLREWKKTIQSDIKRPLQSLVDSGDRDRLFGDLNASNIDDDQRQQLLSNHAILQKSGDRLKDASRIANETEGIGSQIMMDLRSQRETLENARQTLFQADSYVDKSIKTLKTMTRRLVANK
B5: GST-Sed5 SNARE domain (residues 170–319) (domain or fragment)
chain: ANKDRWQKLTTDTGHAPADDQTQSNHAADLTTYNNSNPFMTSLLDESSEKNNNSSNQGELSFPQNDSQLMLMEEGQLSNNVYLQERNRAVETIESTIQEVGNLFQQLASMVQEQGEVIQRIDANVDDIDLNISGAQRELLKYFDRIKSNR
B7: Vam3 cytoplasmic domain (residues 1–264) fused C-terminally to GST (domain or fragment)
chain: MSFFDIEAQSSKGNSQQEPQFSTNQKTKELSNLIETFAEQSRVLEKECTKIGSKRDSKELRYKIETELIPNCTSVRDKIESNILIHQNGKLSADFKNLKTKYQSLQQSYNQRKSLFPLKTPISPGTSKERKDIHPRTEAVRQDPESSYISIKVNEQSPLLHNEGQHQLQLQEEQEQQQQGLSQEELDFQTIIHQERSQQIGRIHTAVQEVNAIFHQLGSLVKEQGEQVTTIDENISHLHDNMQNANKQLTRADQHQRDRNKCGK

Assays:
Assay in all cases: pull-down
purified Vps33 = biological target: T1, purified Vps33 (S. cerevisiae, UniProt P20795 1-691)
T1 sequence: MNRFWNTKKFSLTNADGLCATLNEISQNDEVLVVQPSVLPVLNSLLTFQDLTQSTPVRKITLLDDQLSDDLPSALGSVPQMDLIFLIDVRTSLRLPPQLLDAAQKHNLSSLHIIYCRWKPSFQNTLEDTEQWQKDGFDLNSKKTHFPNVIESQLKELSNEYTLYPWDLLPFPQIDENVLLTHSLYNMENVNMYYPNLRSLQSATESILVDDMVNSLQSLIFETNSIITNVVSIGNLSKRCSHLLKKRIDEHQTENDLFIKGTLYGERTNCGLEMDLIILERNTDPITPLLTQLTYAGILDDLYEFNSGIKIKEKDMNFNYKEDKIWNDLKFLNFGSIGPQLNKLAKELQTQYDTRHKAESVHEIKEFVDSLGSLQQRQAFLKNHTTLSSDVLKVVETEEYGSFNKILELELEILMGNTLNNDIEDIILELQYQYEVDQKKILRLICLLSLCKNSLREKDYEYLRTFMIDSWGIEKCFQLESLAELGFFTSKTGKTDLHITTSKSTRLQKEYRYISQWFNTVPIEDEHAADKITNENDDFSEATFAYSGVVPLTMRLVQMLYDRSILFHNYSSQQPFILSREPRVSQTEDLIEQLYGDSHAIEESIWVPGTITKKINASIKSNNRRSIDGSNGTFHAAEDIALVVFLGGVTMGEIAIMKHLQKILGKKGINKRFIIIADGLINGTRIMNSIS

[1] = biological target: B7
[2] = biological target: B4
[3] = biological target: B2
[4] = biological target: T2, His6-Sec22 cytoplasmic domain (UniProt P22214 1-192)
T2 sequence: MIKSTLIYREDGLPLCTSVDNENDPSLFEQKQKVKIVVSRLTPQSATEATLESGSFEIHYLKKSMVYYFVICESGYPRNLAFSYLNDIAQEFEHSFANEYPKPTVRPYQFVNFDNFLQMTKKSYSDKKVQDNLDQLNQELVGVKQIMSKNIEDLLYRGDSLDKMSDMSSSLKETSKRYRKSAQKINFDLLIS

[5] = biological target: B5
His6-Vam7 = biological target: T3, His6-Vam7 (S. cerevisiae, UniProt P32912 1-316)
T3 sequence: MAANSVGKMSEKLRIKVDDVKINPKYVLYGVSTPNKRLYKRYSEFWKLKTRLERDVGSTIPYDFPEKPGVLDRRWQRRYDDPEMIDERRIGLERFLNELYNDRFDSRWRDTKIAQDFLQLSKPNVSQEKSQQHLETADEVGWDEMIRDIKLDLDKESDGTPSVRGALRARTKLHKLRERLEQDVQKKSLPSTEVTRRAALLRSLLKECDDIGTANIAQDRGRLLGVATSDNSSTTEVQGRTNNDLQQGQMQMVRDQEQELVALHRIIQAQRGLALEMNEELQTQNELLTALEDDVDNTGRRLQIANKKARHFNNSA

B1: minimal SNARE complex lacking the N-terminal domains of Vam3 and Vam7 (complex)
chain 1: SQEELDFQTIIHQERSQQIGRIHTAVQEVNAIFHQLGSLVKEQGEQVTTIDENISHLHDNMQNANKQLTRADQHQRDRNKCGK
chain 2: PSTEVTRRAALLRSLLKECDDIGTANIAQDRGRLLGVATSDNSSTTEVQGRTNNDLQQGQMQMVRDQEQELVALHRIIQAQRGLALEMNEELQTQNELLTALEDDVDNTGRRLQIANKKARHFNNSA
chain 3: SSLLISYESDFKTTLEQAKASLAEAPSQPLSQRNTTLKHVEQQQDELFDLLDQMDVEVNNSIGDASERATYKAKLREWKKTIQSDIKRPLQSLVDSGDRDRLFGDLNASNIDDDQRQQLLSNHAILQKSGDRLKDASRIANETEGIGSQIMMDLRSQRETLENARQTLFQADSYVDKSIKTLKTMTRRLVANK
chain 4: MKRFNVSYVEVIKNGETISSCFQPFQKNENYGTITSANEQITPVIFHNLIMDMVLPKVVPIKGNKVTKMSMNLIDGFDCFYSTDDHDPKTVYVCFTLVDMPKILPIRILSGLQEYESNATNELLSSHVGQILDSFHEELVEYRNQTLNSSGNGQSSNGNGQNTISDIGDATEDQIKDVIQIMNDNIDKFLERQERVSLLVDKTSQLNSSSNKFRRKAVNIKEIMWWQKVKN
B1 showed a Kd (purified Vps33) of 2800 nM.

B2: binds [1].

B3: Vam3 SNARE domain (residues 182–264) fused C-terminally to GST (domain or fragment)
chain: SQEELDFQTIIHQERSQQIGRIHTAVQEVNAIFHQLGSLVKEQGEQVTTIDENISHLHDNMQNANKQLTRADQHQRDRNKCGK
B3: binds [2]; binds [3].

B4: binds [1].

B5: binds [4].

B6: His6-Bet1 cytoplasmic domain (domain or fragment)
chain: MSSRFAGGNAYQRDTGRTQLFGPADGSNSLDDNVSSALGSTDKLDYSQSTLASLESQSEEQMGAMGQRIKALKSLSLKMGDEIRGSNQTIDQLGDTFHNTSVKLKRTFGNMMEMARR
B6: binds [5].

B7: binds (His6-Vam7).
